Holding throughout (test): Crosslinking/co-immunoprecipitation/mass spectrometry (TMT quantitative proteomics) to identify irisin receptors
What all share (format): binding

Assay [1] addresses T1, MLO-Y4 cell surface proteins (Mus musculus, UniProt Q9CXD6).
T1 construct: endogenous in cells; host or cells: MLO-Y4
T1 sequence (Q9CXD6 1-340): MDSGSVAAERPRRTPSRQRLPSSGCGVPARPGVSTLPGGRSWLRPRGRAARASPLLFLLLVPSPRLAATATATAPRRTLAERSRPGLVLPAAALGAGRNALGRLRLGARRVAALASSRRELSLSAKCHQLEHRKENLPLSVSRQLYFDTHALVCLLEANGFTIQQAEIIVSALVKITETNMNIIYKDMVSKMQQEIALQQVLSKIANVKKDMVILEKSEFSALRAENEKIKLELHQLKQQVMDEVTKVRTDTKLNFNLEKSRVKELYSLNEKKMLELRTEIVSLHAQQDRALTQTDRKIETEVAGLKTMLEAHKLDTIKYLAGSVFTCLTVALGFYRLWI
To be noted: co-precipitated protein Mcur1 (MCUR1_MOUSE). The method in brief: (§1)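 Relative protein abundance came from 6-plex TMT MS3 quantitation on an Orbitrap Fusion Lumos, after in-gel trypsin digestion of Coomassie-stained SDS-PAGE lanes. Input was a Ni-NTA pulldown (250 mM imidazole elution) of lysates from murine MLO-Y4 cells. These cells were treated on ice with His-tagged irisin or adipsin (10 nM, 20 min) in serum-free medium, then crosslinked with 1.5 mM DTSSP for 30 min.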

Assay [2] concerns the target T2, MLO-Y4 cell surface proteins (Mus musculus, UniProt Q6ZQ93).
T2 construct: endogenous in cells; host or cells: MLO-Y4
To be noted: co-precipitated protein Usp34 (UBP34_MOUSE). The method in brief: as §1

The target of assay [3] is T3, MLO-Y4 cell surface proteins (Mus musculus, UniProt Q66GT5).
T3 construct: endogenous in cells; host or cells: MLO-Y4
T3 sequence (Q66GT5 32-193): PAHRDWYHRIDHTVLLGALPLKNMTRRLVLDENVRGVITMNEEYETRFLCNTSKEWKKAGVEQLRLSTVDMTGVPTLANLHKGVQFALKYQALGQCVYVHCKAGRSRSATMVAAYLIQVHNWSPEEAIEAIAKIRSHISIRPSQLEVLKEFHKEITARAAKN
The settings on record: co-precipitated protein Ptpmt1 (PTPM1_MOUSE). The method in brief:
as §1

In assay [4] the target is T4, MLO-Y4 cell surface proteins (Mus musculus, UniProt Q9CY64).
T4 construct: endogenous in cells; host or cells: MLO-Y4
T4 sequence (Q9CY64 3-295): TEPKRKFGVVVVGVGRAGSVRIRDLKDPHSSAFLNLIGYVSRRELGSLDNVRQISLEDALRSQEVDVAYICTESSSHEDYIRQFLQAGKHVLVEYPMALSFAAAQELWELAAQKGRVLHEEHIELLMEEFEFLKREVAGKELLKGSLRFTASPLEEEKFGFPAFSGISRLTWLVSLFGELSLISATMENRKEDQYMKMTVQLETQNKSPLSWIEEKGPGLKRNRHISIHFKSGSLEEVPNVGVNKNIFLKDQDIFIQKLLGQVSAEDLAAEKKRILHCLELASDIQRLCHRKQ
To be noted: co-precipitated protein Blvra (BIEA_MOUSE). The method in brief: as §1

Assay [5] concerns the target T5, MLO-Y4 cell surface proteins (Mus musculus, UniProt P60843).
T5 construct: endogenous in cells; host or cells: MLO-Y4
To be noted: co-precipitated protein Eif4a1 (IF4A1_MOUSE). The method in brief:
as §1

T2 sequence (Q6ZQ93 whole entry): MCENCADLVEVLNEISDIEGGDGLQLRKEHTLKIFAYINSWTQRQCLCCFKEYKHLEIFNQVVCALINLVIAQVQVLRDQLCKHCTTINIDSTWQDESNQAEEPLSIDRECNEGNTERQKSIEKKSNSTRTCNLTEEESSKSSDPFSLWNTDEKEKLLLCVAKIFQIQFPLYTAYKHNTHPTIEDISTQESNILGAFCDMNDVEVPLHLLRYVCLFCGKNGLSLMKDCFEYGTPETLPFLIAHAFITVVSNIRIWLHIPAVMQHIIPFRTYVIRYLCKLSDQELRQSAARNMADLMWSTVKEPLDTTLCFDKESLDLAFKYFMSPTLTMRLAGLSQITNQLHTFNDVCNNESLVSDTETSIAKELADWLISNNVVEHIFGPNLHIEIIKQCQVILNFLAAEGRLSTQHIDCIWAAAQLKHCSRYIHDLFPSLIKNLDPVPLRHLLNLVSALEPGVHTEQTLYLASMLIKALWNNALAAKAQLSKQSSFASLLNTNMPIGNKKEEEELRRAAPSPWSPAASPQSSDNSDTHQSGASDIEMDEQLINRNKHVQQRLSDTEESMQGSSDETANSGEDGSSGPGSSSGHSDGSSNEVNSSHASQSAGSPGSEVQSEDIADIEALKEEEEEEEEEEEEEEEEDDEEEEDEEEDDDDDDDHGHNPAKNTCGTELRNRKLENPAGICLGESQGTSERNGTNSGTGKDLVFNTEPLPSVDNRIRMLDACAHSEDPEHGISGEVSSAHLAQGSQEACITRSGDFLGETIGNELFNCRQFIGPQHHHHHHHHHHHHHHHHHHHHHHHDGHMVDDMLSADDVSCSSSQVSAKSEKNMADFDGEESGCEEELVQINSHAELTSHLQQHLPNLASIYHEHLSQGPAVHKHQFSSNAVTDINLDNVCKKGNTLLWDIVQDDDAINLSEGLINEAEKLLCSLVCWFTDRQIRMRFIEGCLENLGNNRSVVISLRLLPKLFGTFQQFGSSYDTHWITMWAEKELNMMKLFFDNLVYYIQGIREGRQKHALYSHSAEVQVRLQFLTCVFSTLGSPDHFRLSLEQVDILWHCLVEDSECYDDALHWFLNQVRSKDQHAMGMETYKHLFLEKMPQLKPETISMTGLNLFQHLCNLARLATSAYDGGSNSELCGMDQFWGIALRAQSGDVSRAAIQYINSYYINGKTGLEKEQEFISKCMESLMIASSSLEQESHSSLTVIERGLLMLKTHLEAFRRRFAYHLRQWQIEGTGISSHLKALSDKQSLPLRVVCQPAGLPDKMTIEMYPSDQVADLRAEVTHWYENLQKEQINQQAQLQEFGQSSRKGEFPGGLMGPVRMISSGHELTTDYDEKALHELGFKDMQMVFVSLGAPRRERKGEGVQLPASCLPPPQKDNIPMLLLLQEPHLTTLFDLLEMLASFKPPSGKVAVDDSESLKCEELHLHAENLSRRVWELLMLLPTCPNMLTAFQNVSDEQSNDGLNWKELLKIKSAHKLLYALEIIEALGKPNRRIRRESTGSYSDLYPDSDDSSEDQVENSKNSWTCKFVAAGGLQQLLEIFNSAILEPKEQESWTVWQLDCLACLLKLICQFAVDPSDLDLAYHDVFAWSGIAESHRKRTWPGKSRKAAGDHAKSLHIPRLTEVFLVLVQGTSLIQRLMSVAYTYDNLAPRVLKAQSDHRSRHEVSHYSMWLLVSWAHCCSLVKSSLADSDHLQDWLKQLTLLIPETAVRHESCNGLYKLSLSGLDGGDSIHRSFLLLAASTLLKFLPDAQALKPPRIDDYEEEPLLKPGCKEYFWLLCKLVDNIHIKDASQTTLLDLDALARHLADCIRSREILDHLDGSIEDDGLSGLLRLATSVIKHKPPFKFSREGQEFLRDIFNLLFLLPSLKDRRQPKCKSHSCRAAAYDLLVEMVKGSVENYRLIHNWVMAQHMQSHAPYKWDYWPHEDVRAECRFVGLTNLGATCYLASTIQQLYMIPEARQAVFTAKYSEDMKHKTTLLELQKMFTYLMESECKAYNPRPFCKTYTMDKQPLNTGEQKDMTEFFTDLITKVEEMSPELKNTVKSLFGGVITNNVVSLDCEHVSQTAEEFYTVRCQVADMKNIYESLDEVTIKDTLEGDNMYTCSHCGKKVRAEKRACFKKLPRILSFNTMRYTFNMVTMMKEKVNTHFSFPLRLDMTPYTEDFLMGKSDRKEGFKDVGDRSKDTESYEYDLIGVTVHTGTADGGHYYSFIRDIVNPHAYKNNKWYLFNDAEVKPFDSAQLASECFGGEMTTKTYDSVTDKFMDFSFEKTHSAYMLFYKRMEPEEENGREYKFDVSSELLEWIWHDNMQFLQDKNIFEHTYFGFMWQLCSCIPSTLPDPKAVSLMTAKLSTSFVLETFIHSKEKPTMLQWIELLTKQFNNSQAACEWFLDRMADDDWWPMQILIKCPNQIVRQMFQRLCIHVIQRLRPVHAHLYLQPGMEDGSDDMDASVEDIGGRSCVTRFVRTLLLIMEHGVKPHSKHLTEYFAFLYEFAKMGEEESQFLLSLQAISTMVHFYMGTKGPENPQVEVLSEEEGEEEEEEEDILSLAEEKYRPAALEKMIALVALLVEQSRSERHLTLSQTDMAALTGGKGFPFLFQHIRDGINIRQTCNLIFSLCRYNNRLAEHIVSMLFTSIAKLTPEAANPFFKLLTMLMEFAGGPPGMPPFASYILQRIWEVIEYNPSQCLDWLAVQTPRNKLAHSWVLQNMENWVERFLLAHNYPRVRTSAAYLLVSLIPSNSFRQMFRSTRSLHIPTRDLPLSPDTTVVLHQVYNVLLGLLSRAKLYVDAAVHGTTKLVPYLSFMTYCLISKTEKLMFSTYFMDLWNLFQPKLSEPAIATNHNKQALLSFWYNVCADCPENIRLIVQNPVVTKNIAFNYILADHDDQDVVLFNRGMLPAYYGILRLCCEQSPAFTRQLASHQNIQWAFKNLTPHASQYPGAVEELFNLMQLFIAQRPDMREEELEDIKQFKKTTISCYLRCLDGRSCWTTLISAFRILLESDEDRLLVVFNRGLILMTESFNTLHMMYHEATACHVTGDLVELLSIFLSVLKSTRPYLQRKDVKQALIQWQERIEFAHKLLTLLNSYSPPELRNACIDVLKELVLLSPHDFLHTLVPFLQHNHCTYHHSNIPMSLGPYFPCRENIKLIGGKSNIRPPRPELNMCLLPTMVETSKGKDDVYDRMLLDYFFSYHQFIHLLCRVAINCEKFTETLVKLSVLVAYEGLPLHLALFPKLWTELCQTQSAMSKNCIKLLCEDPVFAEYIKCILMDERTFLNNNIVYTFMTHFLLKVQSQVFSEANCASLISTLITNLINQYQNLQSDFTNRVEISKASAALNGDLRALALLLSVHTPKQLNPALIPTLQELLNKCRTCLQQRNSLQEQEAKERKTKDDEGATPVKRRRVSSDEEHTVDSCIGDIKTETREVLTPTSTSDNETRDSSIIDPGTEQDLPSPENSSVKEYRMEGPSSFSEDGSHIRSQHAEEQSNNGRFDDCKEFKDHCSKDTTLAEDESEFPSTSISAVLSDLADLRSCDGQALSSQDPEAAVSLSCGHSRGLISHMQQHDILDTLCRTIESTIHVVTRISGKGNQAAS
T5 sequence (P60843 whole entry): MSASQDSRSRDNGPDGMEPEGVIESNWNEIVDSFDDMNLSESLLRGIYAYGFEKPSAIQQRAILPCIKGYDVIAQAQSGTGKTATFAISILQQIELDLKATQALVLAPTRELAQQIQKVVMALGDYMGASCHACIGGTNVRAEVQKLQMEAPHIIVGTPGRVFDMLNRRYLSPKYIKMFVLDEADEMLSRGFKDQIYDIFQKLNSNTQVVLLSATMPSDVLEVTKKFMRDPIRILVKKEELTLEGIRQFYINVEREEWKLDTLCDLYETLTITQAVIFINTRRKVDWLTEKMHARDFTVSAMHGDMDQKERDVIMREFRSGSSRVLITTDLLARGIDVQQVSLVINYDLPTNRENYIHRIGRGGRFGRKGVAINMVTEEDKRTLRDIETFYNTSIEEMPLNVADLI

B1: irisin: secreted cleaved form of FNDC5; recombinant human/mouse irisin with C-terminal his tag produced in HEK293 cells (protein)
chain: DSPSAPVNVTVRHLKANSAVVSWDVLEDEVVIGFAISQQKKDVRMLRFIQEVNTTTRSCALWDLEEDTEYIVHVQAISIQGQSPASEPVLFKTPREAEKMASKNKDEVTMKE
modifications: left off: small tags and cut ends
notes: secreted cleaved form of FNDC5; recombinant human/mouse irisin with C-terminal his tag produced in HEK293 cells
For the molecule B1, the TMT signal-to-noise ratio in assay [1] turned out to be 951.207; in assay [2], 98.0506; in assay [3], 51.6065; in assay [4], 86.0306; in assay [5], 17.0483. For the same molecule, the “irisin/adipsin TMT signal-to-noise ratio” value in assay [1] is on record as 0.583; in assay [2], 0.094; in assay [3], 0.559; in assay [4] it was 0.284; in assay [5], 0.125.

(Values after US20210063414A1, “METHODS FOR PREVENTING AND/OR TREATING BONE LOSS CONDITIONS BY MODULATING IRISIN” (Dana-Farber Cancer Institute, Inc., priority 2018, published 2021).)
